According to patent publication KR20210010236A (dated 2021):

Columns and labels:
[1] = target: T1, Full-length(FL)-WRS, human tryptophanyl-tRNA synthetase (NP_004175.2) (human, UniProt P23381 2-471); experiment: western blot on HeLa and HCT116 cell lysates, purified scFv detected with anti-HA-HRP
T1 construct: In the western blot and immunoprecipitation the target was endogenous WRS in lysates of human cells (HeLa, HCT116, HEK293F); also called Human WRS; TrpRS
T1 sequence: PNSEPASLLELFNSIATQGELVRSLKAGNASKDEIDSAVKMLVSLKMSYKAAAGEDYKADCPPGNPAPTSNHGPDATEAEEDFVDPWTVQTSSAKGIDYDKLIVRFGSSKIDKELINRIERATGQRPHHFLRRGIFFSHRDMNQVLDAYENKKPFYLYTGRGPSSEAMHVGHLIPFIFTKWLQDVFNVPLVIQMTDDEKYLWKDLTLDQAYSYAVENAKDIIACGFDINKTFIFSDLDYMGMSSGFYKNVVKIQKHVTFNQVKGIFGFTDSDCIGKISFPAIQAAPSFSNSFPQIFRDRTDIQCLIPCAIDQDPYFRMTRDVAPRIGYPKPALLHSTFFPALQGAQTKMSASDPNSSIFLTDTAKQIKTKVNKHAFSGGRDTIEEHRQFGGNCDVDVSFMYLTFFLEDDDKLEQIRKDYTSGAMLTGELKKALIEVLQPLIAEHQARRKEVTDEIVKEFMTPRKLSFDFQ

[2] = target: T1, Full-length(FL)-WRS, human …; experiment: SPR (Biacore 2000), FL-WRS immobilised on a CM5 chip, antibody 6.25-100 nM as analyte
[3] = target: T1, Full-length(FL)-WRS, human …; experiment: cell-based or functional assay

B1: 3C6 scFv (scFv)
scFv: EVQLLESGGGLVQPGGSLRLSCAASGFTFSSYDMSWVRQAPGKGLEWVSAISSGGSSIYYADSVKGRFTISRDNSKNTLYLQMNSLRAEDTAVYYCARDVAWDMLGDFDYWGQGTLVTVSSGGGGSGGGGSGGGGSQSVLTQPPSASGTPGQRVTISCTGSSSNIGSNYVYWYQQLPGTAPKLLIYANSHRPSGVPDRFSGSKSGTSASLAISGLRSEDEADYYCGAWDDSLSAYVFGGGTKLTV
notes: The scFv comes from an HA-tagged human scFv phage library; It was expressed in the E. coli periplasm, purified on Ni-NTA and detected with anti-HA-HRP; also called 3C6 scFv clone
- binding result [1]: binds

B2: 3C6 IgG 단일클론 항체 (anti-WRS(3C6) IgG) (antibody, V domains shown)
VH: EVQLLESGGGLVQPGGSLRLSCAASGFTFSSYDMSWVRQAPGKGLEWVSAISSGGSSIYYADSVKGRFTISRDNSKNTLYLQMNSLRAEDTAVYYCARDVAWDMLGDFDYWGQGTLVTVSS
VL: QSVLTQPPSASGTPGQRVTISCTGSSSNIGSNYVYWYQQLPGTAPKLLIYANSHRPSGVPDRFSGSKSGTSASLAISGLRSEDEADYYCGAWDDSLSAYVFGGGTKLTV
notes: The variable regions of the 3C6 scFv were converted to IgG (pcDNA3.4 vectors, expressed in HEK293F, purified on protein A); also called 3C6 IgG 항체; WRS(3C6) 항체
- Kd [2]: 17.2 nM
- koff [2]: 0.0011 s⁻¹
- kon [2]: 64100 M⁻¹ s⁻¹
- EC 50 (inhibition of human WRS-induced TNF-α secretion by differentiated THP-1 macrophages) [3]: 0.035 nM
